Data: patent US20260098102A1 (NATIONAL UNIVERSITY CORPORATION KOBE UNIVERSITY, published 2026)

B1: humanized anti-SIRPA antibody hD13_H1L3 (antibody, human IgG4 S228P, kappa, F234A L235A, V domains shown)
VH: QVQLVESGGGVVQPGRSLRLSCAASGFTFSDYGMIWVRQAPGKGLEWVASISSSSSYIYYADSVKGRFTISRDNSKNRLYLQMNSLRAEDTAVYYCARRYYGFNYPFDYWGQGTMVTVSS
VL: DTQLTQSPSSLSASVGQRVTITCGASKSVRTYMHWYQQKPGKQPKLLIYSASNLEAGVPSRFSGSGSGTDFTLTISSLQPEDFATYYCQQSNEPPYTFGQGTKLEIKR
notes: hH1 heavy chain (IgG4proFALA) and hL3 kappa light chain; also called hD13_HIL3; HIL3 antibody
B2: human chimeric anti-SIRPA antibody cD13 (antibody, human IgG4 S228P, kappa, F234A L235A, V domains shown)
VH: EVQLVESGGGLVQPGRSLKLSCLASGFTFSDYGMIWVRQAPGKGLEWVASISSSSSYIYYADTVKGRFTISRENAKNTLFLHMTSLRSEDTALYYCARRYYGFNYPFDYWGQGVMVTVSS
VL: DTVLTQSPALAVSLGQRVTISCGASKSVRTYMHWYQQKSGQQPKLLIYSASNLEAGVPSRFSGSGSGTDFTLTIDPVEADDIANYYCQQSNEPPYTFGAGTKLELKR
notes: Human IgG4proFALA heavy chain, human kappa light chain; also called cD13 (IgG4pf); human chimeric antibody D13

Assays:
SIRPA_V1_IgV [1] = molecular target: T1, SIRPA_V1_IgV (human, UniProt P78324 31-149); experiment: SPR Biacore T200, antibody captured on anti-human IgG (Fc), SIRPA_V1_IgV as analyte (0.25 to 16 nM), 1:1 model
T1 construct: Secreted recombinant protein from FreeStyle 293F cells
T1 sequence (P78324 other isoform, or with tags, fused parts or gaps limits assumed): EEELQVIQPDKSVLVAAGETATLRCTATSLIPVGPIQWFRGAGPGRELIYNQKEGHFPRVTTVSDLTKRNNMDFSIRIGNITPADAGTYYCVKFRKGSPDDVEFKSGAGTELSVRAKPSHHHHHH
Protocol: The dissociation constants were measured by a capture method comprising capturing each antibody as a ligand to an Anti-Human IgG (Fc) antibody immobilized using Human Antibody Capture Kit (GE Healthcare Bioscience Corp.) and measuring an antigen as an analyte, using Biacore T200 (GE Healthcare Bioscience Corp.). HBS-EP+ (GE Healthcare Bioscience Corp.) was used as a running buffer, and CM5 (GE Healthcare Bioscience Corp.) was used as a sensor chip. Onto the chip, 2 μg/mL of various antibodies were added at 10 μL/min for 30 seconds, then a serially diluted solution (0.25 to 16 nM) of the human SIRPA protein as an antigen was added at a flow rate of 30 μL/min for 120 seconds, and subsequently the dissociation phase for 600 seconds was monitored. As a regenerant, 3 M magnesium chloride (GE Healthcare Bioscience Corp.) was added at a flow rate of 20 μL/min for 30 seconds. For data analysis, a binding rate constant (ka), a dissociation rate constant (kd), and a dissociation constant (KD; KD=kd/ka) were calculated using a 1:1 binding model.

SIRPA_V1_IgV [2] = molecular target: T1, SIRPA_V1_IgV; experiment: SPR Biacore T200, antibody captured, SIRPA_V1_IgV as analyte, 1:1 model
Protocol: The dissociation constants of the cD13, cF44, and cF63 prepared in Example 4 against the human SIRPA_V1_IgV prepared in Example 1 were determined by a capture method comprising capturing a human chimeric antibody as a ligand and measuring an antigen as an analyte, using Biacore T200 (GE Healthcare Bioscience Corp.). HBS-EP+ (GE Healthcare Bioscience Corp.) was used as a running buffer, and CM5 (GE Healthcare Bioscience Corp.) was used as a sensor chip. In an amount of 1 μg/mL human chimeric antibody was added onto a chip at a rate of 10 μL/min for 60 seconds, a serially diluted solution of human SIRPA protein as an antigen (0.5 to 8 μg/mL) was added at a flow rate of 30 μL/min for 120 seconds, and the dissociation phase continued to be monitored for 600 seconds. As a regenerant, 3 M magnesium chloride (GE Healthcare Bioscience Corp.) was added at a flow rate of 20 μL/min for 30 seconds. For data analysis, the binding rate constant (ka), dissociation rate constant (kd), and dissociation constant (KD; KD=kd/ka) were calculated using a 1:1 binding model.

human SIRPA_V1 protein = molecular target: T2, human SIRPA_V1 protein (human, UniProt P78324 31-504); experiment: blocking cell-based ELISA: peroxidase-labeled CD47-Fc (10,000 ng/mL) on 293α cells expressing SIRPA_V1; y axis = CD47-Fc signal in % of no antibody [i]
T2 construct: Expressed on 293α cells from pcDNA3.2 V5-DEST or pFLAG V5-DEST (FLAG-tagged) vectors; also called human SIRPA Variant 1; hSIRPA V1
T2 sequence (P78324 31-504 limits assumed): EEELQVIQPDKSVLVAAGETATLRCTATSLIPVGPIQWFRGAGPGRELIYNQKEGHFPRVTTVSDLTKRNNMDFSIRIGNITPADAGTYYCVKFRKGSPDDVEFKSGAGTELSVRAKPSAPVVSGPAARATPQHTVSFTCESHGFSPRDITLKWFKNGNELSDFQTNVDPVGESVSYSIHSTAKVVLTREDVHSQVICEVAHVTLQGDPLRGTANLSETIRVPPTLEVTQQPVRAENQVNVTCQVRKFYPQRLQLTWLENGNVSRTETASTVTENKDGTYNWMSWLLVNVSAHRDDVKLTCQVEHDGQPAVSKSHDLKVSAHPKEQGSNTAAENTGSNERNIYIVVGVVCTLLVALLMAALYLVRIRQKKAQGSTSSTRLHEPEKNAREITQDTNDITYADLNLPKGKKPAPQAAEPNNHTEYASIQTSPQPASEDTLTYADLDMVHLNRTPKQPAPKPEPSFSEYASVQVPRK
Protocol: After the culture supernatant of the human SIRPA and monkey SIRPA expression vector-introduced 293α cells prepared in Examples 5)-1 and 5)-2, respectively, was removed, 50 μL per well of cD13 (IgG2 and IgG4pf), cF44 (four different constant regions IgG1, IgG2, IgG4p, and IgG4pf), and cF63 (IgG2 and IgG4pf) diluted with 5% FBS-containing PBS to final concentrations of 0 to 10,000 ng/mL were added to each of pcDNA3.2 V5-DEST-SIRPA_V1, pcDNA3.2 V5-DEST-monkey SIRPA, and pcDNA3.2 V5-DEST-introduced 293α cells, immediately followed by addition of 50 μL per well of peroxidase-labeled CD47-Fc prepared in 5% FBS-containing PBS at a final concentration of 10,000 ng/ml, and the mixture was allowed to stand at 4° C. for one hour. Thereafter, the SIRPA-CD47 binding inhibitory activity was evaluated in the same manner as in 1)-6-3.

human SIRPA_V2 protein = molecular target: T3, human SIRPA_V2 protein (human, UniProt P78324 31-504); experiment: blocking cell-based ELISA: peroxidase-labeled CD47-Fc (10,000 ng/mL) on 293α cells expressing SIRPA_V2; y axis = CD47-Fc signal in % of no antibody [ii]
T3 construct: Expressed on 293α cells from pcDNA3.2 V5-DEST or pFLAG V5-DEST (FLAG-tagged) vectors; also called human SIRPA Variant 2; ECD variant (full-length, amino acids 1 to 504)

Binder	Kd (SIRPA_V1_IgV [1]) [nM]	Kd (SIRPA_V1_IgV [2]) [nM]	IC50 (read off the curve) (human SIRPA_V1 protein) [µg/mL]	IC50 (read off the curve) (human SIRPA_V2 protein) [µg/mL]
B1	0.252	–	–	–
B2	–	0.0811	~0.1	~0.3
